± gives the uncertainty stated by the source.
Assay: self-splicing fitness, log relative to wild type (ln ratio); higher = more splicing; Tetrahymena group I intron in knt gene, E. coli kanamycin selection, DiMSum; sequences stand for … in CUCUCU…GGAGGGAAAAGUUAUCAGGCAUGCACCUGGUAGCUAGUCUUUAAACCAAUAGAUUGCAUCGGUUUAAAAGGCAAGACCGUCAAAUUGCGGGAAAGGGGUCAACAGCCGUUCAGUACCAAGUCUCAGGGGAAACUUUGAGAUGGCCUUGCAAAGGGUAUGGUAAUAAGCUGACGGACAUGGUCCUAACCACGCAGCCAAGUCCUAAGUCAACAGAUCUUCUGUUGAUAUGGAUGCAGUUCACAGACUAAAUGUCGGUCGGGGAAGAUGUAUUCUUCUCAUAAGAUAUAGUCGGACCUCUCCUUAAUGGGAGCUAGCGGAUGAAGUGAUGCAACACUGGAGCCGCUGGGAACUAAUUUGUAUGCGAAAGUAUAUUGAUUAGUUUUGGAGUACUCGUGGUCG
Summary of the method: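 Colonies from six replicate transformations of E. coli BL21(DE3) were pooled and amplicon-sequenced on an Illumina HiSeq 2500. The library placed an intron with all eight P1ex-region nucleotides randomised inside the knt kanamycin-resistance gene on pET-22b(+), and cells grew overnight at 37°C or 30°C on LB agar with or without 25 μg/mL kanamycin (plus 100 μg/mL carbenicillin, 50 μM IPTG, 0.2% rhamnose). Fitness is the DiMSum error-weighted combination of wild-type-normalised replicate fold changes, kanamycin versus none.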

| Sequence | self-splicing fitness (ln) (30 °C) | self-splicing fitness (ln) (37 °C) |
| --- | --- | --- |
| AAGCAGCAAUAUUACGAUGU | -1.3 ± 0.06 | -0.566 ± 0.078 |
| AAGGAGCAAUAUUACGAGUU | -3.53 ± 0.17 | -1.65 ± 0.12 |
| ACUAAGCAAUAUUACGAACU | -0.447 ± 0.083 | 0.532 ± 0.1 |
| UGAGAGCAAUAUUACGGCUG | -1.5 ± 0.15 | -0.389 ± 0.26 |
| GCGUAGCAAUAUUACGGUAG | -2.9 ± 0.28 | -2.03 ± 0.23 |
| UCACAGCAAUAUUACGACAU | -3.584 ± 0.02 | -2.19 ± 0.034 |
| CCCCAGCAAUAUUACGCUAU | -3.43 ± 0.15 | -1.9 ± 0.13 |
| UCACAGCAAUAUUACGCCUU | -3.82 ± 0.37 | -2.71 ± 0.41 |
| CGUCAGCAAUAUUACGUCUA | -0.831 ± 0.13 | -0.968 ± 0.17 |
| GAAUAGCAAUAUUACGUUAC | -1.97 ± 0.13 | -1.6 ± 0.21 |
| GUGAAGCAAUAUUACGAGUC | -2.58 ± 0.17 | -0.63 ± 0.23 |
| UCCGAGCAAUAUUACGUAUU | -1.95 ± 0.17 | -2.92 ± 0.43 |
| UCCAAGCAAUAUUACGGUUC | -3.22 ± 0.22 | -2.56 ± 0.18 |
| GGAUAGCAAUAUUACGUUUA | -1.02 ± 0.16 | 0.714 ± 0.14 |
| AGUGAGCAAUAUUACGCGAG | -2.91 ± 0.49 |  |
| GAAAAGCAAUAUUACGCUUA | -2.27 ± 0.14 | -1.39 ± 0.14 |
| AAGCAGCAAUAUUACGCACG | -1.15 ± 0.079 | -0.574 ± 0.095 |
| AUAAAGCAAUAUUACGUUGA | -2.1 ± 0.095 | -1.77 ± 0.13 |
| GGACAGCAAUAUUACGGACU | -1.01 ± 0.079 | -0.461 ± 0.09 |
| CGCUAGCAAUAUUACGAAGC | -1.15 ± 0.37 |  |
| AGUCAGCAAUAUUACGACCG | 0.0414 ± 0.095 | 0.085 ± 0.13 |
| GAAUAGCAAUAUUACGAAUU | -1.78 ± 0.084 | -0.497 ± 0.1 |
| CCUAAGCAAUAUUACGGUCA | -3.95 ± 0.37 | -3.01 ± 0.2 |
| CUAUAGCAAUAUUACGCCUU |  | -2.27 ± 0.39 |
| GGCUAGCAAUAUUACGUGGG | -2.64 ± 0.17 | -1.91 ± 0.2 |

| Sequence | self-splicing fitness (ln) (30 °C) | self-splicing fitness (ln) (37 °C) |
| --- | --- | --- |
| UCAAAGCAAUAUUACGAUAC | -3.34 ± 0.28 | -2.82 ± 0.28 |
| UUUCAGCAAUAUUACGUUGG | -4.07 ± 0.18 | -2.52 ± 0.2 |
| UAUCAGCAAUAUUACGAAAG | -1.62 ± 0.12 | -1.21 ± 0.17 |
| CACAAGCAAUAUUACGUGGU | -4.1 ± 0.17 | -2.66 ± 0.19 |
| CGAUAGCAAUAUUACGGGGA |  | -2.27 ± 0.28 |
| GAACAGCAAUAUUACGCGCG | -0.924 ± 0.064 | -0.265 ± 0.085 |
| UGUCAGCAAUAUUACGAUCU | -0.397 ± 0.091 | 0.0205 ± 0.1 |
| AAGCAGCAAUAUUACGGGAU | -3.63 ± 0.14 | -1.92 ± 0.1 |
| AUUAAGCAAUAUUACGUCCC | -0.338 ± 0.18 | 0.486 ± 0.23 |
| CCUCAGCAAUAUUACGAAUG | -1.01 ± 0.089 | -0.196 ± 0.1 |
| ACGCAGCAAUAUUACGAGCG | -1.54 ± 0.083 | -0.23 ± 0.1 |
| CGGUAGCAAUAUUACGGCUG | -4.13 ± 0.25 | -1.05 ± 0.16 |
| GCAUAGCAAUAUUACGGCAC | -1.15 ± 0.14 | -0.425 ± 0.15 |
| UAACAGCAAUAUUACGCGUU | -3.66 ± 0.1 | -3.01 ± 0.13 |
| UGAGAGCAAUAUUACGCCAC | -2.36 ± 0.31 | -1.1 ± 0.42 |
| AGACAGCAAUAUUACGGUCA | -0.457 ± 0.063 | -0.0714 ± 0.074 |
| GCAUAGCAAUAUUACGUAGA | -2.41 ± 0.16 | -0.999 ± 0.17 |
| UUGCAGCAAUAUUACGCCUC | -2.47 ± 0.45 | -0.787 ± 0.37 |
| GCAUAGCAAUAUUACGAUGA | -0.554 ± 0.079 | 0.0691 ± 0.07 |
| GCCGAGCAAUAUUACGAGGC | -3.23 ± 0.35 | -2.3 ± 0.37 |
| GAGUAGCAAUAUUACGUAUU | -3.24 ± 0.16 | -1.79 ± 0.11 |
| CGAAAGCAAUAUUACGAAUA | -2.47 ± 0.29 | -2.14 ± 0.2 |
| GCUGAGCAAUAUUACGUUGU | -3.56 ± 0.14 | -2.83 ± 0.17 |
| GACGAGCAAUAUUACGGGCA | -1.58 ± 0.18 | -2.56 ± 0.29 |
